Experimental data: US20200199241A1 (Chugai, published 2020)
Changes are numbered by the printed parent chain. Numbers in names are those of the source.

T1: mouse FcγRIIb (mouse, UniProt P08101 30-207, limits assumed)
T1 construct: bought; also called mFcgRIIb; mFcgR IIb
T1 sequence (looked up): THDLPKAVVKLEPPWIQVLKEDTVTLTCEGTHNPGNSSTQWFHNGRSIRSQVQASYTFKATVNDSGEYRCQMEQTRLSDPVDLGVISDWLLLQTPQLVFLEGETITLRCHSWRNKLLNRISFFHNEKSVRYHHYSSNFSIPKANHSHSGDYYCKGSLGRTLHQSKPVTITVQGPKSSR

T2: mouse FcγRIII (mouse, UniProt P08508 31-215)
T2 construct: bought; also called mFcgRIII; mFcgR III
T2 sequence (looked up): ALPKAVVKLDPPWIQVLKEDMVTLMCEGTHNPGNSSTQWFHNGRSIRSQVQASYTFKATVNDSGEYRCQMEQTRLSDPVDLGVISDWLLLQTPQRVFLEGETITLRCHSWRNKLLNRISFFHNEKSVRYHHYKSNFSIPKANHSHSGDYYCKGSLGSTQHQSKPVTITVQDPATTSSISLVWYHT

T3: mouse FcγRI (mouse, UniProt P26151 25-297)
T3 construct: bought; also called mFcgRI; mFcgR 1
T3 sequence (looked up): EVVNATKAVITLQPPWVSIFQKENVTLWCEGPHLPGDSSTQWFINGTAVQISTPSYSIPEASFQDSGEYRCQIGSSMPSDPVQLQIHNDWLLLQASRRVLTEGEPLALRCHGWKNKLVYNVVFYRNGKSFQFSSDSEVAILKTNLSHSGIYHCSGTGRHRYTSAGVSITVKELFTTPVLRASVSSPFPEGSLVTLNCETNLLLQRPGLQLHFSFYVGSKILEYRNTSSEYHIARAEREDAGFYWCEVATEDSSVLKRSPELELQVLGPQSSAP

T4: mouse FcγRIV (mouse, UniProt A0A0B4J1G0 21-203)
T4 construct: bought; also called mFcgRIV; mFcgR IV; the vendor's purification tag not given
T4 sequence: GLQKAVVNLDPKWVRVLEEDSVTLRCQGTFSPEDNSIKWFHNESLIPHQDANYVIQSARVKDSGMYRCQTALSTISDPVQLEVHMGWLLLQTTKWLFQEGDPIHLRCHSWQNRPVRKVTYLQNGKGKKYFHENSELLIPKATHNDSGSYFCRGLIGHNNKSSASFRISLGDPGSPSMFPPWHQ

T5: human FcγRIIa(H) (human, UniProt P12318 36-217)
T5 construct: also called hFcgRIIa(H); FcγRIIa type H
T5 sequence: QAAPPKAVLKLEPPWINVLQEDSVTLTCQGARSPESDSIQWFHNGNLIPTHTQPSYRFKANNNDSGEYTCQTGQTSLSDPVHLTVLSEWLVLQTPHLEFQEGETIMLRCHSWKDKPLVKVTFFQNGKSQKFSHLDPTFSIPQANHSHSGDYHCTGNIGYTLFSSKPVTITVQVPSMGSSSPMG

T6: human FcγRIIa(R) (human, UniProt P12318 36-217)
T6 construct: also called hFcgRIIa(R); FcγRIIa type R
T6 chain: T5 sequence with H133R

T7: human FcγRIIb (human, UniProt P31994 43-217, limits assumed)
T7 construct: also called hFcgRIIb; FcγIIB
T7 sequence: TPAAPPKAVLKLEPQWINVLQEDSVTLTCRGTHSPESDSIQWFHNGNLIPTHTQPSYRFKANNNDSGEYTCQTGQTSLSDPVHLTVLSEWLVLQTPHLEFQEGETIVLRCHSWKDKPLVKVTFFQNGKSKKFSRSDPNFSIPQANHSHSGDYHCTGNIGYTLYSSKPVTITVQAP

B1: antibody with VH3-IgG1-F821 heavy chain and L(WT)-CK light chain (antibody)
heavy: QVQLQESGPGLVKPSETLSLTCAVSGHSISHDHAWSWVRQPPGEGLEWIGFISYSGITNYNPSLQGRVTISRDNSKNTLYLQMNSLRAEDTAVYYCARSLARTTAMDYWGEGTLVTVSSASTKGPSVFPLAPSSKSTSGGTAALGCLVKDYFPEPVTVSWNSGALTSGVHTFPAVLQSSGLYSLSSVVTVPSSSLGTQTYICNVNHKPSNTKVDKKVEPKSCDKTHTCPPCPAPELRGGPKVFLFPPKPKDTLYISRTPEVTCVVVDVSHEDPEVKFNWYVDGVEVHNAKTKPREEQYNSTYRVVSVLTVLHQDWLNGKEYKCKVSNKALPAPIEKTISKAKGQPREPQVYTLPPSRDELTKNQVSLTCLVKGFYPSDIAVEWESNGQPENNYKTTPPVLDSDGSFFLYSKLTVDKSRWQQGNVFSCSVMHEALHYHYTQKSLSLSP
light: not shown
notes: L235R/S239K/M252Y/N434Y; copies: 2 + 2
B2: antibody with VH3-IgG1-F890 heavy chain and L(WT)-CK light chain (antibody)
heavy: B1 heavy with R237L, K241S, Y438V
light: not shown
notes: M252Y/N434Y/Y436V; copies: 2 + 2
B3: antibody with VH3-IgG1-F939 heavy chain and L(WT)-CK light chain (antibody)
heavy: B1 heavy with Y438V
light: not shown
notes: L235R/S239K/M252Y/N434Y/Y436V; copies: 2 + 2
B4: antibody with mPM1H-mIgG1 heavy chain and L(WT)-CK light chain (antibody)
heavy: DVQLQESGPVLVKPSQSLSLTCTVTGYSITSDHAWSWIRQFPGNKLEWMGYISYSGITTYNPSLKSRISITRDTSKNQFFLQLNSVTTGDTSTYYCARSLARTTAMDYWGQGTSVTVSSAKTTPPSVYPLAPGSAAQTNSMVTLGCLVKGYFPEPVTVTWNSGSLSSGVHTFPAVLQSDLYTLSSSVTVPSSTWPSETVTCNVAHPASSTKVDKKIVPRDCGCKPCICTVPEVSSVFIFPPKPKDVLTITLTPKVTCVVVDISKDDPEVQFSWFVDDVEVHTAQTQPREEQFNSTFRSVSELPIMHQDWLNGKEFKCRVNSAAFPAPIEKTISKTKGRPKAPQVYTIPPPKEQMAKDKVSLTCMITDFFPEDITVEWQWNGQPAENYKNTQPIMDTDGSYFVYSKLNVQKSNWEAGNTFTCSVLHEGLHNHHTEKSLSHSPGK
light: not shown
notes: mouse IgG1 heavy chain with natural mouse Fc region; also called mPM1-mIgG1; copies: 2 + 2
B5: antibody with mPM1H-mIgG1-mF14 heavy chain (antibody)
heavy: B4 heavy with T248Y, T252E, H429K
light: not shown
notes: T252Y/T256E/H433K; also called mPM1-mIgG1-mF14; copies: 2 + 2
B6: antibody with mPM1H-mIgG1-mF38 heavy chain (antibody)
heavy: B4 heavy with T248Y, T252E, N430W
light: not shown
notes: T252Y/T256E/N434W; also called mPM1-mIgG1-mF38; copies: 2 + 2
B7: antibody with mPM1H-mIgG1-mF39 heavy chain (antibody)
heavy: B4 heavy with P231K, S235K, T248Y, T252E, H429K
light: not shown
notes: P235K/S239K/T252Y/T256E/H433K; also called mPM1-mIgG1-mF39; copies: 2 + 2
B8: antibody with mPM1H-mIgG1-mF40 heavy chain (antibody)
heavy: B4 heavy with P231K, S235K, T248Y, T252E, N430W
light: not shown
notes: P235K/S239K/T252Y/T256E/N434W; also called mPM1-mIgG1-mF40; copies: 2 + 2
B9: G237F (antibody)
heavy: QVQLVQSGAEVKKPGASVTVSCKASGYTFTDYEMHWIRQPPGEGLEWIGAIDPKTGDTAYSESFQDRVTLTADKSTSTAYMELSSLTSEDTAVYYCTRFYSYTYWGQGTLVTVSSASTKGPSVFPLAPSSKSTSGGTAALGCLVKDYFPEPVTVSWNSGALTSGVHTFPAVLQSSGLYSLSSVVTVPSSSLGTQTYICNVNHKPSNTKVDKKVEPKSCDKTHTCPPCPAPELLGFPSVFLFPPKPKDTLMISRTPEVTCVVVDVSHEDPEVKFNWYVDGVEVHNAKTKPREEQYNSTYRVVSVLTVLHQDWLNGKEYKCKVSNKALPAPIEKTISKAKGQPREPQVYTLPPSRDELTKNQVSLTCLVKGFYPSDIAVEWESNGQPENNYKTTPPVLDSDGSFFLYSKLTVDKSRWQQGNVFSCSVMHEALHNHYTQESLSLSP
light: DIVMTQSPLSLPVTPGEPASISCQASESLVHSNRNTYLHWYLQKPGQSPQLLIYKVSNRFSGVPDRFSGSGSGTDFTLKISRVEAEDVGVYYCSQNTHVPPTFGQGTKVEIERTVAAPSVFIFPPSDEQLKSGTASVVCLLNNFYPREAKVQWKVDNALQSGNSQESVTEQDSKDSTYSLSSTLTLSKADYEKHKVYACEVTHQGLSSPVTKSFNRGEC
notes: also called GpH7-B3 variant G237F/GpL16-k0; copies: 2 + 2
B10: G237W (antibody)
heavy: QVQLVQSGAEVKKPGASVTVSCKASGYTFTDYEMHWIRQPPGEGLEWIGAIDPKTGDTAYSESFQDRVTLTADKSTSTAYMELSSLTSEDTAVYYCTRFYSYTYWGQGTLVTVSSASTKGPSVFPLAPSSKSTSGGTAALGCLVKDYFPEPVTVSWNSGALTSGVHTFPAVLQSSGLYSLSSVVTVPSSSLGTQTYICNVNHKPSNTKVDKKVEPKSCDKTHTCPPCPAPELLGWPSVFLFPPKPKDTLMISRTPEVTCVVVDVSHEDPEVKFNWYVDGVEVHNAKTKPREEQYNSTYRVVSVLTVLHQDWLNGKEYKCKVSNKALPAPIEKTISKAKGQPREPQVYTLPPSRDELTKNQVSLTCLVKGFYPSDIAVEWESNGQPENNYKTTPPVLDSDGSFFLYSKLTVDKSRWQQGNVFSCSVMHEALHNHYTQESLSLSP
light: B9 light
notes: also called GpH7-B3 variant G237W/GpL16-k0; copies: 2 + 2
B11: L234Y (antibody)
heavy: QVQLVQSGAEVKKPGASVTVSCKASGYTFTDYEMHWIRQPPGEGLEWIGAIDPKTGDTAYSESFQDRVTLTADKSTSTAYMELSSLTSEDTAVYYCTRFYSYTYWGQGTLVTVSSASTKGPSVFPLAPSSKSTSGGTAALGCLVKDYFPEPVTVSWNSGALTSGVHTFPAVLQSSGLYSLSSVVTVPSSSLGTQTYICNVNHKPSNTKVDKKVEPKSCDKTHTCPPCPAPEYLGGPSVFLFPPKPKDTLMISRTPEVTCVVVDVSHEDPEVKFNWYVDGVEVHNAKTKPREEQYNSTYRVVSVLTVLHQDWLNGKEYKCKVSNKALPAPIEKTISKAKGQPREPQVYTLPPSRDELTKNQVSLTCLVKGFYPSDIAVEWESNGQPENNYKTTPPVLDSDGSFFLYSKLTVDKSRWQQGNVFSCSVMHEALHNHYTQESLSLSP
light: B9 light
notes: also called GpH7-B3 variant L234Y/GpL16-k0; copies: 2 + 2
B12: S239D (antibody)
heavy: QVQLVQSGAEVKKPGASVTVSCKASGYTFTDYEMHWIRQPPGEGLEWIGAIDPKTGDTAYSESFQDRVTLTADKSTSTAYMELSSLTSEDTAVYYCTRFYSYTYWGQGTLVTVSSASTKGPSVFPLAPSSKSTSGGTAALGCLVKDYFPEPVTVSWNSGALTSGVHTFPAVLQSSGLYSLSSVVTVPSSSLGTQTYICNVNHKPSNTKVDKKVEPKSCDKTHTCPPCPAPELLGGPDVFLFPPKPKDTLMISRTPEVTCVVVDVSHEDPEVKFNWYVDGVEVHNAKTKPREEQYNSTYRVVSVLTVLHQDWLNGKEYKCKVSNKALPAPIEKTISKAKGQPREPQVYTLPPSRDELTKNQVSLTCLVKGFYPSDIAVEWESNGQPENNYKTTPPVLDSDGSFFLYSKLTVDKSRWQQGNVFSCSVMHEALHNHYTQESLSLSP
light: B9 light
notes: also called GpH7-B3 variant S239D/GpL16-k0; copies: 2 + 2

molecular target: T1, mouse FcγRIIb; experiment: SPR, antibody captured by Protein L, mouse FcγR as analyte, pH 7.4, 25 C

| Binder | BINDING AMOUNT (RU) |
| --- | --- |
| B1 | -4.5 |
| B2 | 69.3 |
| B3 | -6.3 |

molecular target: T2, mouse FcγRIII; experiment: as above

| Binder | BINDING AMOUNT (RU) |
| --- | --- |
| B1 | -20.3 |
| B2 | 284 |
| B3 | -24.9 |

molecular target: T3, mouse FcγRI; experiment: as above

| Binder | BINDING AMOUNT (RU) |
| --- | --- |
| B1 | 0.6 |
| B2 | 268 |
| B3 | -2 |

molecular target: T4, mouse FcγRIV; experiment: as above

| Binder | BINDING AMOUNT (RU) |
| --- | --- |
| B1 | -3.8 |
| B2 | 230 |
| B3 | -7.3 |

molecular target: T1, mouse FcγRIIb; experiment: as above; remark: another data set of the same source

| Binder | BINDING AMOUNT (RU) |
| --- | --- |
| B4 | 202 |
| B5 | 184 |
| B6 | 161 |
| B7 | -3 |
| B8 | -5.2 |

molecular target: T2, mouse FcγRIII; experiment: as above; remark: another data set of the same source

| Binder | BINDING AMOUNT (RU) |
| --- | --- |
| B4 | 450 |
| B5 | 447 |
| B6 | 403 |
| B7 | -8.4 |
| B8 | -18.7 |

molecular target: T3, mouse FcγRI; experiment: as above; remark: another data set of the same source

| Binder | BINDING AMOUNT (RU) |
| --- | --- |
| B4 | -2 |
| B5 | -3.7 |
| B6 | -2 |
| B7 | -3.1 |
| B8 | -3 |

molecular target: T4, mouse FcγRIV; experiment: as above; remark: another data set of the same source

| Binder | BINDING AMOUNT (RU) |
| --- | --- |
| B4 | -3.5 |
| B5 | -8 |
| B6 | -4.1 |
| B7 | -3.8 |
| B8 | -8.9 |

molecular target: T5, human FcγRIIa(H); experiment: SPR, antibody captured by Protein L, human FcγR as analyte, pH 7.4, 25 C;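 further: biacore T100 or T200 with Protein L amine-coupled on a CM4 chip, FcγRs diluted in ACES saline with polysorbate 20, buffer-only injection as blank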

| Binder | BINDING AMOUNT (RU) |
| --- | --- |
| B2 | 117 |
| B3 | -0.9 |

molecular target: T8, human FcγRIIIa(V) (human, UniProt P08637 17-208, limits assumed); experiment: as above
T8 construct: also called hFcgRIIIa(V); allotype V158
T8 sequence (P08637 other isoform, or with tags, fused parts or gaps limits assumed): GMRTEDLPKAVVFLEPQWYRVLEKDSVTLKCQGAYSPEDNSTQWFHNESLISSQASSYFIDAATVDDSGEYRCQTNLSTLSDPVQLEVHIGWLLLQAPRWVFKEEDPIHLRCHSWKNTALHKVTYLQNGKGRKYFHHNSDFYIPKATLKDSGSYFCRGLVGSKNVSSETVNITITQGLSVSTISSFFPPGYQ

| Binder | BINDING AMOUNT (RU) |
| --- | --- |
| B2 | 180 |
| B3 | -0.75 |

Molecular target: T6, human FcγRIIa(R)
Experiment: as above

| Binder | BINDING AMOUNT (RU) |
| --- | --- |
| B2 | 128 |
| B3 | -0.8 |

molecular target: T7, human FcγRIIb; experiment: as above

| Binder | BINDING AMOUNT (RU) |
| --- | --- |
| B2 | 54.1 |
| B3 | -0.2 |

molecular target: T9, human FcγRIa (human, UniProt P12314 16-292, limits assumed); experiment: as above
T9 construct: also called hFcgRIa; hFcgRI
T9 sequence (P12314 16-292 limits assumed): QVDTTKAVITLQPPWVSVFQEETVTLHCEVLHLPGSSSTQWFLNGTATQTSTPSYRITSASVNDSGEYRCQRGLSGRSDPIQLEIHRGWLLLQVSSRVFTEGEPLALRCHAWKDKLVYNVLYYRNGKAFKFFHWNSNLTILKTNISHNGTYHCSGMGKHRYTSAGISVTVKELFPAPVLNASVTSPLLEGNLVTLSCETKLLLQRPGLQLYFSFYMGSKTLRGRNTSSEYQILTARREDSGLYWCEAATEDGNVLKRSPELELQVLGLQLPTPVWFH

| Binder | BINDING AMOUNT (RU) |
| --- | --- |
| B2 | 363 |
| B3 | -2.37 |

molecular target: T10, human FcRn (soluble human FcRn complexed with β2-microglobulin) (human, UniProt P61769 21-119, limits assumed); experiment: SPR, antibody captured by Protein L, human FcRn as analyte, pH 7.0, 25 C
T10 construct: also called hFcRn
T10 sequence (chain, as listed by the source limits assumed, chain 1 of 2): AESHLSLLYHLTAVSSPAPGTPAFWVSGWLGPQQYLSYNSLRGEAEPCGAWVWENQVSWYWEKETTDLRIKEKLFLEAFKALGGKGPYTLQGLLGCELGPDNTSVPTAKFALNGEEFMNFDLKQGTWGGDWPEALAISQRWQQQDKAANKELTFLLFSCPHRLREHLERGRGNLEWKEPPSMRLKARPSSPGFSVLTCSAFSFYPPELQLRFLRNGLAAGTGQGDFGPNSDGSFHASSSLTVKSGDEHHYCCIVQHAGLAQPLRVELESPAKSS
T10 sequence (P61769 21-119 limits assumed, chain 2 of 2): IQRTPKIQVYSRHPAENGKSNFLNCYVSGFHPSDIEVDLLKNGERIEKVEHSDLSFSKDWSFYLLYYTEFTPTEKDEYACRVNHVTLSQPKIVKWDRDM

| Binder | Kd [nM] |
| --- | --- |
| B1 | 310 |
| B2 | 110 |
| B3 | 150 |

molecular target: T7, human FcγRIIb; experiment: SPR (Biacore), amount of FcγRIIb bound to the captured antibody, relative to GpH7-B3/GpL16-k0 = 100

| Binder | binding result |
| --- | --- |
| B9 | binds |
| B10 | binds |
| B11 | binds |
| B12 | binds |
